Substrate: CC(=O)C=O
Assay: purified protein

B1: (Homo sapiens) (protein)
chain: MASKRALVILAKGAEEMETVIPVDVMRRAGIKVTVAGLAGKDPVQCSRDVVICPDASLEDAKKEGPYDVVVLPGGNLGAQNLSESAAVKEILKEQENRKGLIAAICAGPTALLAHEIGFGSKVTTHPLAKDKMMNGGHYTYSENRVEKDGLILTSRGPGTSFEFALAIVEALNGKEVAAQVKAPLVLKD
Km: 340 ± 40 µM | kcat: 0.126 ± 0.004 s⁻¹
